Assay results taken from the supplement of paper PMC9732359.
± gives the uncertainty stated by the source.

Test: protein stability index of a GFP-peptide fusion (yeast GPS) (PSI 1-4); higher = more stable; sorted into four equal gates, so the index is relative within each strain
Method in brief: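 Each library plasmid carries Cherry plus GFP with a tiled 17-residue yeast protein peptide fused downstream, and the pooled library was carried in yeast. Mid-log cultures in leucine-free medium were sorted into four equal gates by GFP/Cherry ratio. Reads from Illumina sequencing of PCR-amplified plasmids from each gate were assigned to strains by barcodes. Per peptide, the protein stability index was computed as the summed products of gate read frequency and gate number.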

Row | Sequence | protein stability index (doa10∆) | protein stability index (pdr5∆) | protein stability index (san1∆) | protein stability index (ubr1∆)
1 | LCLMTWKEVMFDPSKDV [CDC53] | 2.52 ± 0.079 | 2.72 ± 0.068 | 2.83 ± 0.097 | 3.09 ± 0.073
2 | EYLKGSESQLNSTLKKV [YCS4] | 2.85 ± 0.17 | – | 2.5 ± 0.2 | –
3 | ERLKVPILVTLVSDSEI [POP6] | 1.55 ± 0.035 | 1.86 ± 0.04 | 1.58 ± 0.066 | 1.66 ± 0.025
4 | TDLGKDIPFFPSSEKPN [SSN2] | 2.7 ± 0.059 | 2.9 ± 0.077 | 2.57 ± 0.11 | 3.07 ± 0.037
5 | GLSKEDDVRDFVIRREV [RPS6A] | 3.42 ± 0.094 | 3.42 ± 0.081 | 3.13 ± 0.13 | 3.68 ± 0.15
6 | YESRNVAKRRFEYSKYR [RRP6] | 3.16 ± 0.072 | 3.4 ± 0.087 | 3.29 ± 0.041 | 3.3 ± 0.079
7 | ELQKLVHDLNKYKSNTN [SMC2] | 3.15 ± 0.072 | 3.31 ± 0.071 | 3.41 ± 0.047 | 3.32 ± 0.06
8 | KASELKLALGIALEGYR [RPN2] | 2.62 ± 0.15 | 2.28 ± 0.18 | – | 2.56 ± 0.097
9 | MKVEELIIDGFKSYATR [SMC2] | 3.45 ± 0.19 | 3.21 ± 0.08 | 3.11 ± 0.063 | 3.22 ± 0.096
10 | DENGDKNDNGGKMNNEV [SWI3] | 3.15 ± 0.084 | 3.41 ± 0.077 | 3.12 ± 0.044 | 3.33 ± 0.097
11 | IDATLKEELLRDGVLTV [RRP45] | 1.8 ± 0.047 | 1.92 ± 0.05 | 2 ± 0.081 | 2.04 ± 0.045
12 | IYQHLASHNEKDQDSQI [SRP72] | 2.58 ± 0.092 | 2.45 ± 0.074 | 2.53 ± 0.12 | 2.78 ± 0.099
13 | TRNPDAPKGSTDPKELY [RPC40] | 3.11 ± 0.23 | 3.63 ± 0.29 | – | 3.48 ± 0.16
14 | EPYARVSGDLNPIHVSR [FAS1] | 2.64 ± 0.14 | 2.92 ± 0.092 | 2.76 ± 0.086 | 2.83 ± 0.1
15 | GMRVGVDRSKYNIELPL [RPT1] | – | – | 3.52 ± 0.16 | –
16 | TSPFGGARPGRVARRNA [RPS9A] | 2.8 ± 0.15 | 2.84 ± 0.28 | 3.02 ± 0.15 | 3.28 ± 0.1
17 | LKKIASIPNLFPTDLEI [SWI1] | 2.59 ± 0.051 | 2.69 ± 0.044 | 2.55 ± 0.053 | 2.64 ± 0.036
18 | SVVRVLVHTQIRKTPLA [RPL3] | 1.19 ± 0.076 | 1.35 ± 0.096 | 1.11 ± 0.14 | 1.54 ± 0.046
19 | SPYGNLQNDLIHKIQND [RPN5] | 2.02 ± 0.083 | 2.67 ± 0.053 | 2.82 ± 0.07 | 2.56 ± 0.058
20 | TSLITAVYGPRSIRGSF [MTR3] | 2.72 ± 0.073 | 2.72 ± 0.086 | 2.55 ± 0.074 | 2.28 ± 0.058
21 | KSIMDGIHDGHIKKLLH [FAS1] | 1.54 ± 0.035 | 1.48 ± 0.037 | 1.37 ± 0.075 | 1.38 ± 0.024
22 | ISLHENKLSGILADEMG [ISW2] | 2.81 ± 0.085 | 2.16 ± 0.069 | 2.71 ± 0.084 | 2.44 ± 0.1
23 | TRLPAFERPAVKEEKED [RPC53] | 2.87 ± 0.25 | 2.71 ± 0.23 | 3.21 ± 0.085 | 3.46 ± 0.16
24 | FSEGTSADREIQRTLME [RPT4] | 3.41 ± 0.14 | 3.46 ± 0.084 | 3.29 ± 0.091 | 3.1 ± 0.087
25 | QIILAYIKYNILLTSIS [SRP68] | 1.29 ± 0.08 | 1.25 ± 0.074 | 1.12 ± 0.28 | 1.18 ± 0.15
26 | SKRYIPSVNDFVIGVII [RRP40] | 2.4 ± 0.054 | 2.66 ± 0.056 | 2.17 ± 0.078 | 2.73 ± 0.054
27 | LESEAQKKATMSAEEAL [RPC34] | 3.13 ± 0.096 | 3.26 ± 0.14 | 3.04 ± 0.092 | 3.58 ± 0.12

Row | Sequence | protein stability index (doa10∆) | protein stability index (pdr5∆) | protein stability index (san1∆) | protein stability index (ubr1∆)
28 | IVDPTAEQLKISLSVHT [RRP46] | 1.64 ± 0.042 | 1.81 ± 0.044 | 2.34 ± 0.057 | 2.04 ± 0.043
29 | SFLFSAIPLQQVLSQSA [SWI1] | 1.58 ± 0.054 | 1.43 ± 0.064 | 1.28 ± 0.091 | 1.39 ± 0.034
30 | PYFEQKIQETELKIRSK [RPT6] | 2.71 ± 0.12 | 2.84 ± 0.1 | 2.96 ± 0.13 | 3.04 ± 0.088
31 | HQQQQQQQQQQQQQQQQ [SNF5] | 2.78 ± 0.056 | 2.88 ± 0.049 | 2.88 ± 0.056 | 2.93 ± 0.055
32 | IYQVPEKDLEHWLQLAK [POP1] | 3.22 ± 0.12 | 3.13 ± 0.13 | 3.42 ± 0.091 | 3.1 ± 0.099
33 | QLAPSSVDPQSSSTQNV [DIS3] | 2.99 ± 0.084 | 3.21 ± 0.079 | 2.8 ± 0.081 | 2.63 ± 0.098
34 | KPSFSFPGKPVDVQAPT [YOR098C/NUP1] | 2.72 ± 0.056 | 2.88 ± 0.094 | 3.12 ± 0.055 | 2.77 ± 0.068
35 | LFRIFSMSEEFKYVSVR [BRR2] | 2.39 ± 0.14 | 3.18 ± 0.15 | 2.99 ± 0.18 | 3.29 ± 0.12
36 | SQPNNTPSFSFGKTTAN [YLR335W/NUP2] | 2.76 ± 0.054 | 2.84 ± 0.051 | 2.78 ± 0.058 | 2.87 ± 0.048
37 | PHNSKSLGFLQQSNKLH [RPN3] | 3.11 ± 0.059 | 3.07 ± 0.072 | 3.1 ± 0.053 | 3.26 ± 0.055
38 | HRASPADVSIKSILQEI [POP5] | 3.11 ± 0.26 | 3.27 ± 0.1 | 2.95 ± 0.12 | –
39 | KRFMNTSQNPQRDAEIS [BRR2] | 3.04 ± 0.076 | 3.03 ± 0.085 | 3.12 ± 0.1 | 2.95 ± 0.059
40 | ALSYAALILADSEIEIS [RPP1A] | 1.8 ± 0.058 | 1.93 ± 0.062 | 1.78 ± 0.06 | 1.9 ± 0.04
41 | QLQKILESLKPIDDTMT [MTW1] | 2.73 ± 0.072 | 2.86 ± 0.058 | 2.69 ± 0.052 | 2.59 ± 0.042
42 | IDHSDESNRQSVIVDSK [ESC2] | 3.18 ± 0.13 | 3.27 ± 0.077 | 3.08 ± 0.093 | 3.51 ± 0.15
43 | NGGSEEEITCALDYLIP [MED7] | 3.45 ± 0.1 | 3.45 ± 0.13 | 3.44 ± 0.098 | 3.35 ± 0.09
44 | FEGDSNMLICAPTGSGK [BRR2] | 1.79 ± 0.096 | 1.43 ± 0.075 | 1.71 ± 0.14 | 2.18 ± 0.071
45 | KLHEFYLLISKENKKRK [IRR1] | 2.96 ± 0.081 | 2.65 ± 0.066 | 2.89 ± 0.051 | 3.04 ± 0.067
46 | KASTISRGAVSGQKAGL [RPL2A] | 2.46 ± 0.044 | 2.36 ± 0.055 | 2.67 ± 0.055 | 2.87 ± 0.046
47 | LGTVQREIESLIAEETN [SMC3] | 2.79 ± 0.18 | 2.83 ± 0.082 | 3.01 ± 0.12 | 2.91 ± 0.15
48 | YLLASLKDSKDFDESLK [RPN9] | 2.69 ± 0.083 | 2.82 ± 0.088 | 2.82 ± 0.099 | 2.52 ± 0.084
49 | KDSYINANTIETAKMIE [FAS2] | 3.14 ± 0.045 | 3.07 ± 0.044 | 3.18 ± 0.032 | 3.16 ± 0.044
50 | PEGYKAKSISTSAKEPS [RPO31] | 1.39 ± 0.085 | 1.51 ± 0.077 | 1.45 ± 0.19 | 1.86 ± 0.09
51 | ATEPQMVLFNIYDDWLD [PRP8] | 2.28 ± 0.051 | 2.15 ± 0.047 | 1.6 ± 0.09 | 2.18 ± 0.044
52 | EKKLMQDNKQLYQIWIV [YDL116W/NUP84] | 2.06 ± 0.075 | 1.83 ± 0.078 | 2.72 ± 0.15 | 1.44 ± 0.072
53 | YDTTPLLDTNSLEENAM [SKI6] | 3.08 ± 0.12 | 2.96 ± 0.082 | 2.97 ± 0.15 | 2.88 ± 0.078
